These results are taken from patent US20130224187A1 (Alexion, published 2013).

Where a chain is given by its changes, count along the chain named.

Usually Kd stands for a measure of binding affinity in units of concentration. Read a low Kd as a tighter complex. The koff is the rate constant with which the complex falls apart. A lower koff goes with slow dissociation. The term kon denotes the rate constant with which the complex forms. The low end stands for slower complex formation, the high end for faster complex formation.

T1: human C5a (human, UniProt P01031 678-751)
T1 construct: also called hC5a; free human C5a
T1 sequence: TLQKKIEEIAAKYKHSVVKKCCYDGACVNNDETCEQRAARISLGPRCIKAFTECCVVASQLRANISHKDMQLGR

B1: 5an047 (antibody, V domains shown)
VH: EVQLQQSGPELVKPGASVRISCKASGYTFSDYYYMNWVKKSHGKSLEWIGYIFPKTGGTHYNQRFKGKATLTVDKSSSTAYMELRSLTSEDSAVYYCASGPFAYWGQGTLVTVSA
VL: EIVLTQSPAIMSASPGEKVTMTCRASSSVSSSYLHWYQQKSGASPKLWIYSTSNLASGVPARFSGSGSGTSYSLTISSVEAEDAATYYCQQYSGYPLTFGAGTKLELKR
notes: Murine
B2: 5an054ME (antibody, V domains shown)
VH: B1 VH with R19K, S30T, K40Q, K55N, H60T
VL: QIVLTQSPVIMSASPGEKVTMTCSASSSVSYMYWYQQKPGSSPRLLIYDTSNLASGVPVRFSGSGSGTSYSLTISRMEAEDAATYYCQQWSSYPPTFGAGTKLELKR
notes: Murine
B3: 5an052 (antibody, V domains shown)
VH: B1 VH with S30N, K40Q
VL: QIVLTQSPAIMSASPGEKVTLTCSASSSVSSSYLYWYQQKPGSSPKLWIYSTSNLASGVPARFSGSGSGTSYSLTISTVEAEDAASYFCHQWSSYPPTFGGGTKLEIKR
notes: Murine
B4: 5anG12 (antibody, V domains shown)
VH: B1 VH with S30N, K40Q
VL: QIVLTQSPAIMSASPGEKVTMTCSASSSISYMHWYQQKPGTSPKRWIYDTSKLASGVPARFSGSGSGTSYSLTISSMEAEDAATYYCHQRSSYPWTFGGGTKLEIKR
notes: Murine
B5: 5anE11 (antibody, V domains shown)
VH: B1 VH
VL: DIVMTQSQKFMSTSVGDRVSVTCKASQNVGTNVAWYQQKPGQSPKALIYSASYRYSGVPDRFTGSGSGTDFTLTISNVQSEDLAEYFCQQYNSYPWTFGGGTKLEIKR
notes: Murine
B6: 5anG10 (antibody, V domains shown)
VH: B1 VH with S30N, K40Q
VL: B4 VL with S91R
notes: Murine
B7: 5an181 (antibody, V domains shown)
VH: B1 VH with R19K, H60N
VL: B1 VL
notes: Murine
B8: 5an053 (antibody, V domains shown)
VH: B1 VH with L4M, R19K, H60N
VL: B4 VL with Q1E, A9V, T22I, S76I
notes: Murine
B9: 5an109 (antibody, V domains shown)
VH: B1 VH with R19K, H60N
VL: B2 VL with Q1E, V9A, A99G, L105I
notes: Murine
B10: 5an110ME (antibody, V domains shown)
VH: B1 VH with R19K, H60N, N62S
VL: B5 VL with W96F, G100S
notes: Murine
B11: 5an055 (antibody, V domains shown)
VH: B1 VH with R19K, H60N
VL: B3 VL with Q1E, T78S, V79M
notes: Murine
B12: 5an188ME (antibody, V domains shown)
VH: EVQLQQSGAELVKPGTSVKLSCKASGYTFTSYWMHWVKQRPGQGLEYIGEIHPSSGHTNYHEKFKSKATLTVDKSSSTAYMQLSSLTSEDSAVYYCARASLLRAYAMDYWGQGTSVTVSS
VL: DIVLTQSPASLAVSLGQRATISCRASESVDSYGNSFMHWYQQKPGQPPKLLIYLASNLESGVPARFSGSGSRTDFTLTIDPVEADDAATYYCQQNNEDPLTFGAGTKLELKR
notes: Murine
B13: 5an183 (antibody, V domains shown)
VH: EVQLQQPGSVLVRPGATVKLSCKASGFTFTSSWMHWAKQRPGQGLEWIGEIHTSGHTNYNEKFKGKATLTLDTSSSTAYVDISSLTSEDSAVYYCARGGLRRGYAMDYWGQGTSVTVSS
VL: B12 VL with L54R, V62I, D80N, A87V, N95S
notes: Murine
B14: 5an185ME (antibody, V domains shown)
VH: EVQPQQSGPELVKPGSSVKISCKASGYTFTDYSMDWVKQSHGKSLEWIGAIHLNTGYTNYNQKFKGKATLTVDKSSSTAYMELRSLTSEDSAVYYCARGFYDGYSPMDYWGQGTSVTVSS
VL: B12 VL with L54R, V62I, D80N, A87V, N95S
notes: Murine
B15: 5an177ME (antibody, V domains shown)
VH: EVKLVESGGGLVKPGGSLKLSCAASGITFSSYYMAWVRQTPDKRLEWVATISSGGSYTYYPDNVKGRFTISRDNAKNTLYLQMSSLKSEDTAMYYCTRYYEDDAMDYWGQGTSVTVSS
VL: B4 VL with Q1E, I29V, P39S, H88Q, R90W, Y93N, W95L, G99A, I105L
notes: Murine
B16: BNJ369 (antibody, human IgG2, kappa)
heavy: QVQLVQSGAEVKKPGASVKVSCKASGYTFTDYSMDWVRQAPGQGLEWMGAIHLNTGYTNYNQKFKGRVTMTRDTSTSTVYMELSSLRSEDTAVYYCARGFYDGYSPMDYWGQGTTVTVSSASTKGPSVFPLAPCSRSTSESTAALGCLVKDYFPEPVTVSWNSGALTSGVHTFPAVLQSSGLYSLSSVVTVPSSNFGTQTYTCNVDHKPSNTKVDKTVERKCCVECPPCPAPPVAGPSVFLFPPKPKDTLMISRTPEVTCVVVDVSQEDPEVQFNWYVDGVEVHNAKTKPREEQFNSTYRVVSVLTVLHQDWLNGKEYKCKVSNKGLPSSIEKTISKAKGQPREPQVYTLPPSQEEMTKNQVSLTCLVKGFYPSDIAVEWESNGQPENNYKTTPPVLDSDGSFFLYSRLTVDKSRWQEGNVFSCSVMHEALHNHYTQKSLSLSLGK
light: DIVMTQSPDSLAVSLGERATINCRASESVDSYGNSFMHWYQQKPGQPPKLLIYRASNLESGVPDRFSGSGSGTDFTLTISSLQAEDVAVYYCQQSNEDPYTFGGGTKVEIKRTVAAPSVFIFPPSDEQLKSGTASVVCLLNNFYPREAKVQWKVDNALQSGNSQESVTEQDSKDSTYSLSSTLTLSKADYEKHKVYACEVTHQGLSSPVTKSFNRGEC
notes: Humanized full length IgG
B17: BNJ381 (antibody, human IgG2, kappa, V domains shown)
VH: QVQLVQSGAEVKKPGASVKVSCKASGYTFTDYSMDWVRQAPGQGLEWMGAIHLNTGYTNYNQKFKGRVTMTRDTSTSTVYMELSSLRSEDTAVYYCARGFYDGYSPMDYWGQGTTVTVSS
VL: DIVMTQSPDSLAVSLGERATINCRASESVDSYGNSFMHWYQQKPGQPPKLLIYWASTRESGVPDRFSGSGSGTDFTLTISSLQAEDVAVYYCQQSNEDPYTFGGGTKVEIKR
notes: Humanized full length IgG; Light chain CDR2 is humanized

One experiment addresses T1, human C5a. Put plainly: ELISA.
Regarding B1, the binding result is reported as “binds”.

As for B2, the binding result is on record as “binds”.

For B3, the binding result is “binds”.

Take B4: the binding result is reported as “binds”.

For B5, the binding result is recorded as “binds”.

B6: the binding result was “binds”.

On to B7, for which the binding result is recorded as “binds”.

Regarding B8, the binding result is recorded as “binds”.

In the case of B9, the binding result is reported as “binds”.

On to B10, for which the binding result is on record as “binds”.

With B11, the binding result was “binds”.

For the molecule B12, the binding result is recorded as “binds”.

As to B13, the binding result is “binds”.

On to B14, for which the binding result is “binds”.

As to B15, the binding result was “binds”.

For a further experiment, the target named is T1, human C5a. Put plainly: SPR (Biacore); antibody captured by anti-human Fc on CM5 chip, human C5a 0.6-5.9 nM as analyte; 1:1 Langmuir fit. As for the experimental part: See, e.g., Karlsson and Larsson (2004) Methods Mol Biol 248:389-415. […] The surface was regenerated with 20 mM HCl, 0.02% P20 after each cycle to remove bound antibody and antigen. The data was evaluated using Biacore BlAevaluation software using a 1:1 Langmuir Model Fit (Rmax:Global Fit; R1:Local Fit). Kinetics information such as (kₐ: Association Rate constant), (kd:Dissociation Rate constant) and KD (Equilibrium Dissociation constant) was obtained from the fit. These experiments were for screening purposes with a minimal number of analyte concentrations (3 to 4) with 1 duplicate.
A general note: SPR reads the build-up and loss of mass on a sensor chip optically.
For B16, the Kd is 0.0531 nM, the koff was 0.000223 s⁻¹ and the kon stood at 4.19e+06 M⁻¹ s⁻¹.

In the case of B17, the Kd was 0.0815 nM, the koff was found to be 0.000209 s⁻¹ and the kon is 2.57e+06 M⁻¹ s⁻¹.
